Assays:
[1] = tested on: KK-Ay diabetic model mice; assay: Oral glucose tolerance test, KK-Ay diabetic model mice; type: in vivo, mouse; settings: 1 mg/Kg and 0.1 mg/Kg subcutaneously, glucose 1 mg/g by gastric tube 6 h later
[2] = tested on: KK-Ay diabetic model mice; assay: Single injection hypoglycemic test, KK-Ay mouse obesity diabetic model; type: in vivo; settings: 1 mg/Kg, single injection through caudal vein, 0-240 min, fasted 2 h
[3] = tested on: KK-Ay diabetic model mice; assay: Long-term administration experiment, KK-Ay diabetic model mice; type: in vivo, mouse; settings: 1 mg/Kg twice per week
Method: The drug is given twice per week, and the mice are fasted for 6 h each Wednesday and tested for fast blood glucose, meanwhile their food intake and weight variation are recorded. […] Specifically, long term administration is conducted according to the following protocol: the KK-Ay diabetic model mice are randomized into blank control group (injected only with PBS) and experimental group (injected with 1 mg/Kg of the fusion protein in Table 3). The drug is given twice per week; after 2 weeks, the mice are fasted for 6 h and tested for fasting blood glucose, and the blood glucose decrease of one experimental group is calculated by subtracting the fasting blood glucose of the experimental group from that of the blank control group.

[4] = tested on: db/db diabetic model mice; assay: Single injection hypoglycemic test, db/db mouse obesity diabetic model; type: in vivo; settings: 1 mg/Kg and 0.1 mg/Kg groups, single injection through caudal vein, 0-240 min
human GLP-1 receptor [5] = molecular target: T1, human GLP-1 receptor (Homo sapiens, UniProt P43220); assay: Combining (binding) test with CHO engineering cell line expressing human GLP-1R, flow cytometry; settings: 4° C. 30 min
T1 construct: expressed in transfected cells; host or cells: CHO (CHO-hGLP1R)
T1 sequence (P43220 24-463): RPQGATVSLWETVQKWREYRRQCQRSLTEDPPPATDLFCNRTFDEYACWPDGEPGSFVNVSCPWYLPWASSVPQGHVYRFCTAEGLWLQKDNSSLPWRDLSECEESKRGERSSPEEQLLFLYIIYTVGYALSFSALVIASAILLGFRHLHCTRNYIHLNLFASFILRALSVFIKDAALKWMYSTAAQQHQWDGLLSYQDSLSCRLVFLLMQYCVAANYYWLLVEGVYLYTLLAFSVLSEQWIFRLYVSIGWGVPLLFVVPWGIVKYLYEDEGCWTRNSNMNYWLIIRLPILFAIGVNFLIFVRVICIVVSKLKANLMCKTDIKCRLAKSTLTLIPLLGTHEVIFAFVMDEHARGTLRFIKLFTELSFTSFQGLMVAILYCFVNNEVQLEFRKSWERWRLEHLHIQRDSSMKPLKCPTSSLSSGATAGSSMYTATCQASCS
Method: After PBS washing, human immunoglobulin γ chain antibody labeled with fluorescein FITC is added, and incubate at 4° C. for 30 min. After PBS washing, 1% paraformaldehyde in PBS is added, mix thoroughly and load the sample, read the mean fluorescence intensity of sample of each concentration in selected zone in the flow cytometry.

human GLP-1 receptor [6] = molecular target: T1, human GLP-1 receptor; assay: cAMP secretion test on human GLP-1 receptor CHO cell (CHO-hGLP1R); type: cell-based; settings: for cAMP concentration: 30 min incubation, CHO-hGLP1R

B1: LAX09: Exendin-4 (SEQ ID NO: 1) fused via linker SEQ ID NO: 3 to Fc fragment of human IgG2; SEQ ID NO: 4 (protein)
chain: HGEGTFTSDLSKQMEEEAVRLFIEWLKDGGPSSGAPPPSGGGGAGGGGVECPPCPAPPVAGPSVFLFPPKPKDTLMISRTPEVTCVVVDVSHEDPEVQFNWYVDGVEVHNAKTKPREEQFNSTFRVVSVLTVVHQDWLNGKEYKCKVSNKGLPAPIEKTISKTKGQPREPQVYTLPPSREEMTKNQVSLTCLVKGFYPSDIAVEWESNGQPENNYKTTPPMLDSDGSFFLYSKLTVDKSRWQQGNVFSCSVMHEALHNHYTQKSLSLSPGK
modifications: The sequence is synthesized
ability to maintain normal blood glucose (oral glucose tolerance) [1]: same good ability to maintain normal blood glucose | blood glucose of the mouse [2]: under 10 mmol/L | food intake [3]: decreases | weight [3]: significantly reduced | fast blood glucose ([3]; fasted 6 h, versus PBS group): significantly different from that of PBS group | hypoglycemic effect (blood glucose) [4]: best hypoglycemic effect | Mean fluorescence intensity (human GLP-1 receptor [5]; LAX09 mass concentration 0.098 μg/mL): 14.12 | Mean fluorescence intensity (human GLP-1 receptor [5]; LAX09 mass concentration 0.246 μg/mL): 17.53 | Mean fluorescence intensity (human GLP-1 receptor [5]; LAX09 mass concentration 0.614 μg/mL): 21.78 | Mean fluorescence intensity (human GLP-1 receptor [5]; LAX09 mass concentration 1.536 μg/mL): 38.01 | Mean fluorescence intensity (human GLP-1 receptor [5]; LAX09 mass concentration 3.84 μg/mL): 57.03 | Mean fluorescence intensity (human GLP-1 receptor [5]; LAX09 mass concentration 9.6 μg/mL): 81.54 | Mean fluorescence intensity (human GLP-1 receptor [5]; LAX09 mass concentration 24 μg/mL): 94.81 | Mean fluorescence intensity (human GLP-1 receptor [5]; LAX09 mass concentration 60 μg/mL): 121.98 | EC50 (human GLP-1 receptor [6]; cAMP in CHO-hGLP1R cells): ~4.5 nM | cAMP concentration (human GLP-1 receptor [6]; drug concentration 0.01 nM): 2 | cAMP concentration (human GLP-1 receptor [6]; drug concentration 0.1 nM): 5 | cAMP concentration (human GLP-1 receptor [6]; drug concentration 1 nM): 31 | cAMP concentration (human GLP-1 receptor [6]; drug concentration 10 nM): 115 | cAMP concentration (human GLP-1 receptor [6]; drug concentration 1000 nM): 153
